Entries after “also recorded” stand apart in the source; their conditions may differ. Numbered stars: 1 amine (or outer) side, 2 acyl side, 3 side chain; on linkers, the order of the positions; unused ones are H or OH. Square brackets hold non-standard residues; d marks the D form. Peptide text beside a SMILES is read from it. Cys(Me) = S-methylcysteine, cys(Me), CSC[C@H](N[*:1])C(=O)[*:2]; Pen = CC(C)(S)[C@H](N)C(=O)O; hLeu = CC(C)CC[C@H](N)C(=O)O; hCys = N[C@@H](CCS)C(=O)O; Nle = CCCC[C@H](N)C(=O)O; Nva = CCC[C@H](N)C(=O)O; Aib = CC(C)(N)C(=O)O
Tests used:
HIF-1α PAS-B (238-349) = biological target: T1, HIF-1α PAS-B (238-349) (Homo sapiens, UniProt Q16665); assay: MST binding to recombinantly expressed HIF-1α PAS-B domain; conditions: for affinity for the PAS-B domain of HIF-1α compared with cyclo-CLLFVY: compared with previously reported HIF-1 dimerization inhibitor
T1 construct: human HIF-1α PAS-B (238-349); His tag; made in house; host or cells: E. coli BL21(DE3)-Rosetta, pET28a
T1 sequence (Q16665 238-349): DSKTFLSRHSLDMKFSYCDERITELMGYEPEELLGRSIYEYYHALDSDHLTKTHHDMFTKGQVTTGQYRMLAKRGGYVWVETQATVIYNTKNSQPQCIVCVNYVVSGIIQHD
Description: (§1) Genes encoding for human HIF-1α PAS-B (238-349) and HIF-2α PAS-B (240-350) were each cloned into pET28a vectors at the BamHI and SacI restriction sites. The recombinant plasmids were next transformed into BL21(DE3)-Rosetta chemically competent cells. Cells were grown in LB media at 37° C. to an OD600 of 0.7, after which expression was induced by addition of 0.5 mM IPTG. Following overnight expression at 16° C., cells were pelleted and resuspended in buffer containing 50 mM Tris, 150 mM NaCl, 5% glycerol, 1 mM TCEP, protease inhibitors (Roche) and 20 mM imidazole, pH 8.0. Cells were lysed by sonication, and the supernatant applied to a 1 mL Histrap FF affinity column. The His-tagged protein of interest was eluted with buffer containing 50 mM Tris, 150 mM NaCl, 5% glycerol, 1 mM TCEP and 250 mM imidazole. The protein was then loaded onto a HiLoad 16/600 superdex 75 pg size exclusion column (GE healthcare) equilibrated with assay buffer containing 50 mM Tris, 150 mM NaCl, 5% glycerol and 1 mM TCEP, pH 8.0. Fractions containing the desired protein were flash-frozen and stored at −80° C. prior to use.
(§2) HIF-α proteins were labelled with Monolith NT-647 labelling dye (Nanotemper Technologies GmbH) according to the manufacturer's instructions. MST experiments were performed on a Monolith NT.115 system (Nanotemper Technologies GmbH), in assay buffer containing 50 nM labelled protein, 10% DMSO and 0.05% TWEEN-20. MST measurements were performed using 50% LED and 50% MST power.

HIF-2α PAS-B = assay: 2α (μM)
Description: Table printed on a drawing sheet, Figure 3 (part 1 of 3) A
Head of the field: 2α (μM)
The patent's description of the figure: FIG. 3

HIF-2α PAS-B (240-350) = biological target: T2, HIF-2α PAS-B (240-350) (Homo sapiens, UniProt Q99814); assay: MST binding to recombinantly expressed HIF-2α PAS-B domain; conditions: MST, recombinant HIF-2α PAS-B domain; read-out: Kd / binding affinity for 2α PAS-B
T2 construct: HIF-2α PAS-B (240-350); His tag; made in house; host or cells: E. coli BL21(DE3)-Rosetta, pET28a
T2 sequence (Q99814 240-350): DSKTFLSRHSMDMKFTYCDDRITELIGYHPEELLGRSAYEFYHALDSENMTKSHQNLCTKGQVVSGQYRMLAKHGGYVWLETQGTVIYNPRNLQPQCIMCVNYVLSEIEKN
Description: The three lead peptides were next chemically synthesised, using Fmoc-solid phase peptide synthesis methodology, followed by in-solution cyclisation under high dilution conditions.
as §1, with “use. […]” for “use.”

[1] = biological target: T3, human HIF-1α PAS-B (238-349), recombinant, His-tagged (human, UniProt Q16665 238-349, labelled with Monolith NT-647 dye for MST); assay: MST, HIF-1α PAS-B; bar chart of Kd (µM) for residues at position 5 of CRLIIF
T3 construct: range 238-349; Expressed in E. coli BL21(DE3)-Rosetta from pET28a; also called HIF-1α PAS-B domain; PAS-B domain of HIF-1α; not shown: His tag from pET28a vector (BamHI/SacI cloning)
T3 sequence (Q16665 238-349): as the sequence (Q16665 238-349) above

[2] = biological target: T3, human HIF-1α PAS-B (238-349), …; assay: MST, HIF-1α PAS-B; bar chart of Kd (µM) for residues at position 1 of CRLIIF
[3] = biological target: T4, human HIF-2α PAS-B (240-350), recombinant, His-tagged (human, UniProt Q99814 240-350, labelled with Monolith NT-647 dye for MST); assay: MST, HIF-2α PAS-B (column 2α (µM))
T4 construct: range 240-350; Expressed in E. coli BL21(DE3)-Rosetta from pET28a; also called PAS-B domain of HIF-2α; not shown: His tag from pET28a vector (BamHI/SacI cloning)
T4 sequence (Q99814 240-350): as the sequence (Q99814 240-350) above

[4] = biological target: T3, human HIF-1α PAS-B (238-349), …; assay: MST, NT-647-labelled recombinant 1α PAS-B
Description: as §2

[5] = biological target: T3, human HIF-1α PAS-B (238-349), …; assay: MST, HIF-1α PAS-B (column 1α (µM))

CC[C@H](C)[C@@H]1NC(=O)[C@H](CC(C)C)NC(=O)[C@H](CCCNC(=N)N)NC(=O)[C@H](CS)NC(=O)[C@H](Cc2ccccc2)NC(=O)C(C)(C)NC1=O [Cyclic peptide #38, cyclo-cys agr leu ile (Aib) phe (Aib)F] (cyclo([Aib]FCRLI))
affinity relative to parent peptide CRLIIF (in words) (HIF-1α PAS-B (238-349); MST, SAR substitutions, listed as Aib derivative): weaker Kd than the parent compound; also recorded: markedly improved affinity over both the alanine and aminobutyric acid

CC[C@H](C)[C@@H]1NC(=O)[C@H](CC(C)C)NC(=O)[C@H](CCCNC(=N)N)NC(=O)[C@H](CS)NC(=O)[C@H](Cc2ccccc2)NC(=O)[C@H](C)NC1=O [compound 10, CRLIAF]
Kd (HIF-2α PAS-B): 269 ± 7 µM

CC[C@H](C)[C@@H]1NC(=O)[C@H](CC(C)C)NC(=O)[C@H](CC(C)C)NC(=O)[C@H](CCCNC(=N)N)NC(=O)[C@H](CS)NC(=O)[C@H](Cc2ccccc2)NC1=O [Cyclic peptide #2, cyclo-cys arg leu leu ile phe] (cyclo(CRLLIF))
Kd (HIF-1α PAS-B (238-349); MST, recombinant HIF-1α PAS-B domain, read-out: Kd / binding affinity for 1α PAS-B): 10 to 14 µM | affinity for the PAS-B domain of HIF-1α compared with cyclo-CLLFVY (HIF-1α PAS-B (238-349)): improved affinities | Kd (HIF-2α PAS-B (240-350)): 10 to 14 µM

CC[C@H](C)[C@@H]1NC(=O)[C@H](CC(C)C)NC(=O)[C@H](CCCNC(=N)N)NC(=O)[C@H](C)NC(=O)[C@H](Cc2ccccc2)NC(=O)[C@H]([C@@H](C)CC)NC1=O [Cyclic peptide #9, cyclo-ala agr leu ile ile phe] (cyclo(ARLIIF))
Kd / binding affinity for 1α PAS-B (HIF-1α PAS-B (238-349); MST, recombinant HIF-1α PAS-B domain): could not be determined

CC[C@H](C)[C@@H]1NC(=O)[C@H](CC(C)C)NC(=O)[C@H](CCCCN)NC(=O)[C@H](CS)NC(=O)[C@H](Cc2ccccc2)NC(=O)[C@H]([C@@H](C)CC)NC1=O [Cyclic peptide #1, cyclo-cys lys leu ile ile phe] (cyclo(CKLIIF))
selectivity between 1α and 2α PAS-B domains (in words) (HIF-1α PAS-B (238-349); MST, 1α vs 2α PAS-B): little difference in selectivity | affinity for the PAS-B domain of HIF-1α compared with cyclo-CLLFVY (HIF-1α PAS-B (238-349)): improved affinities

CC[C@H](C)[C@@H]1NC(=O)[C@H](C)NC(=O)[C@H](CCCNC(=N)N)NC(=O)[C@H](CS)NC(=O)[C@H](Cc2ccccc2)NC(=O)[C@H]([C@@H](C)CC)NC1=O [compound 8, CRAIIF] (cyclo(CRAIIF))
Kd (HIF-2α PAS-B): 52 ± 7 µM

B1: cyclo-cys arg leu ile (n-leu) phe (peptide)
peptide: cyclo(CRLI[Nle]F)
SMILES: CCCC[C@@H]1NC(=O)[C@H]([C@@H](C)CC)NC(=O)[C@H](CC(C)C)NC(=O)[C@H](CCCNC(=N)N)NC(=O)[C@H](CS)NC(=O)[C@H](Cc2ccccc2)NC1=O
notes: also called Cyclo-CRLI(Nle)F; cyclic peptide #34
binding result [1]: binds

B2: C(Me) (peptide)
cyclic peptide: cyclo([Cys(Me)]RLIIF)
SMILES: CC[C@H](C)[C@@H]1NC(=O)[C@H](CC(C)C)NC(=O)[C@H](CCCNC(=N)N)NC(=O)[C@H](CSC)NC(=O)[C@H](Cc2ccccc2)NC(=O)[C@H]([C@@H](C)CC)NC1=O
notes: Bar 'C(Me)' in the chart of C1 substitutions of CRLIIF; Comparative peptide; also called Cyclo-C(Me)RLIIF; cyclo-(methyl)cys arg leu ile ile phe
Kd [2]: 62 µM

B3: cyclo-Pen arg leu ile ile phe (peptide)
peptide: cyclo([Pen]RLIIF)
SMILES: CC[C@H](C)[C@@H]1NC(=O)[C@H](CC(C)C)NC(=O)[C@H](CCCNC(=N)N)NC(=O)[C@H](C(C)(C)S)NC(=O)[C@H](Cc2ccccc2)NC(=O)[C@H]([C@@H](C)CC)NC1=O
notes: also called Cyclo-PenRLIIF; cyclic peptide #12d
Kd [2]: 9 µM

B4: cyclo-hcys arg leu ile ile phe (peptide)
peptide: cyclo([hCys]RLIIF)
SMILES: CC[C@H](C)[C@@H]1NC(=O)[C@H](CC(C)C)NC(=O)[C@H](CCCNC(=N)N)NC(=O)[C@H](CCS)NC(=O)[C@H](Cc2ccccc2)NC(=O)[C@H]([C@@H](C)CC)NC1=O
notes: also called Cyclo-hCRLIIF; cyclic peptide #13d
Kd [2]: 44 µM

B5: cyclo-cys arg leu ile (Nva) phe (peptide)
peptide: cyclo(CRLI[Nva]F)
SMILES: CCC[C@@H]1NC(=O)[C@H]([C@@H](C)CC)NC(=O)[C@H](CC(C)C)NC(=O)[C@H](CCCNC(=N)N)NC(=O)[C@H](CS)NC(=O)[C@H](Cc2ccccc2)NC1=O
notes: also called Cyclo-CRLI(Nva)F; cyclic peptide #35
binding result [1]: binds

B6: cyclo-cys arg leu ile h-leu phe (peptide)
peptide: cyclo(CRLI[hLeu]F)
SMILES: CC[C@H](C)[C@@H]1NC(=O)[C@H](CC(C)C)NC(=O)[C@H](CCCNC(=N)N)NC(=O)[C@H](CS)NC(=O)[C@H](Cc2ccccc2)NC(=O)[C@H](CCC(C)C)NC1=O
notes: also called Cyclo-CRLI(hL)F; cyclic peptide #33
binding result [1]: binds

CRLIIF (head-to-tail cyclic (cyclo-), also called CRLIIF; cyclic peptide #4) [cyclo-cys arg leu ile ile phe]
Kd [2]: 3.9 µM | Kd [3]: 11 µM | Kd [4]: 3.8 µM | fold greater affinity than CKLLIF [4]: ~3 fold

CALIIF (head-to-tail cyclic (cyclo-), also called CALIIF; cyclic peptide #10) [cyclo-cys ala leu ile ile phe]
Kd [5]: 30 µM | Kd [3]: 12 µM

CRLAIF (head-to-tail cyclic (cyclo-), also called CRLAIF; cyclic peptide #6) [cyclo-cys arg leu ala ile phe]
Kd [5]: 13 µM | Kd [3]: 61 µM

B7: T (peptide)
cyclic peptide: TRLIIF
modifications: head-to-tail cyclised
notes: Bar 'T' in the chart of C1 substitutions of CRLIIF; Comparative peptide; also called Cyclo-TRLIIF; cyclo-thr arg leu ile ile phe
Kd [2]: > 200 µM

cyclo(CKLLIF) (not fully specified, also called CKLLIF; cyclic peptide #5) [cyclo-cys lys leu leu ile phe]
Kd [4]: 12 µM

CRAIIF (head-to-tail cyclic (cyclo-), also called CRAIIF; cyclic peptide #11) [cyclo-cys arg ala ile ile phe]
Kd [5]: 53 µM | Kd [3]: 52 µM

B8: cyclo-cys arg leu ile leu phe (peptide)
peptide: CRLILF
modifications: head-to-tail cyclic (cyclo-)
notes: also called Cyclo-CRLILF; cyclic peptide #36
binding result [1]: binds

ARLIIF (head-to-tail cyclic (cyclo-), also called ARLIIF; cyclic peptide #9) [cyclo-ala arg leu ile ile phe]
Kd [2]: > 200 µM

B9: cyclo-cys arg leu ile val phe (peptide)
peptide: CRLIVF
modifications: head-to-tail cyclic (cyclo-)
notes: also called Cyclo-CRLIVF; cyclic peptide #37
binding result [1]: binds

B10: M (peptide)
cyclic peptide: MRLIIF
modifications: head-to-tail cyclised
notes: Bar 'M' in the chart of C1 substitutions of CRLIIF; Comparative peptide; also called Cyclo-MRLIIF; cyclo-met arg leu ile ile phe
Kd [2]: 108 µM

B11: S (peptide)
cyclic peptide: SRLIIF
modifications: head-to-tail cyclised
notes: Bar 'S' in the chart of C1 substitutions of CRLIIF; Comparative peptide; also called Cyclo-SRLIIF; cyclo-ser arg leu ile ile phe
Kd [2]: 169 µM

CRLIIA (head-to-tail cyclic (cyclo-), also called CRLIIA; cyclic peptide #8) [cyclo-cys arg leu ile ile ala]
Kd [5]: 91 µM | Kd [3]: 373 µM

CRLIAF (head-to-tail cyclic (cyclo-), also called CRLIAF; cyclic peptide #7) [cyclo-cys arg leu ile ala phe]
Kd [5]: 111 µM | Kd [3]: 269 µM
